From PMC5418573

Experiments:
[1] = biological target: recombinant PolB1 of Sulfolobus solfataricus (Sulfolobus solfataricus) (UniProt P26811); experiment: native MS; PolB1-HE complex at 4.2 μM in 50 mM ammonium acetate, nano ESI, Synapt G2S
[2] = biological target: recombinant PolB1 of Sulfolobus solfataricus (Sulfolobus solfataricus) (UniProt P26811)

UniProt P26811, sequence (P26811 36-882): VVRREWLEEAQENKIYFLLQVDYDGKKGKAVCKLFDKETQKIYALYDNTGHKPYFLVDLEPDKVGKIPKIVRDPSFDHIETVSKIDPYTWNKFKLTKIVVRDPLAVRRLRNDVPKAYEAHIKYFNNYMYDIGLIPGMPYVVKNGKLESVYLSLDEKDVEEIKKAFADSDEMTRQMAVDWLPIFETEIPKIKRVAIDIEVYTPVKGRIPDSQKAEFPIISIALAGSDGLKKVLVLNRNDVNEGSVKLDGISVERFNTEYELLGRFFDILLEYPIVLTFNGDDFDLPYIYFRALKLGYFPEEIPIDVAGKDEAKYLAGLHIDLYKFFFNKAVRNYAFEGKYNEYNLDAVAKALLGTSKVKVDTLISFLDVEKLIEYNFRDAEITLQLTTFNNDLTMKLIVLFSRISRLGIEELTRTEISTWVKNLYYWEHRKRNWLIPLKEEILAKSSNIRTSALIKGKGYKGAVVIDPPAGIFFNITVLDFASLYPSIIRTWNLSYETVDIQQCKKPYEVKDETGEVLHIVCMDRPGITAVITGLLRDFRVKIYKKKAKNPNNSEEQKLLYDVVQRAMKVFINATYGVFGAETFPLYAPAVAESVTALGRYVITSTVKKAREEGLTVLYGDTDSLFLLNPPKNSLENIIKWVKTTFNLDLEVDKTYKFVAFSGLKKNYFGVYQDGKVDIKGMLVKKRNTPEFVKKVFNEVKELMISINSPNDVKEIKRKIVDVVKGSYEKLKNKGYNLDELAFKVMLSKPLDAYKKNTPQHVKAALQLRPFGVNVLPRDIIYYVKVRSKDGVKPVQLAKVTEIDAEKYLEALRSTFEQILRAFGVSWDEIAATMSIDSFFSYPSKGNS

| Substance | stoichiometry N [1] | kinetics of excision of the 3′ nucleotide (dGMP) [2] [fold] |
| --- | --- | --- |
| recombinant PBP1 of Sulfolobus solfataricus (SSO0150) (from UniProt Q980X5 1-118) (natural protein) | 1 | – |
| PBP1ΔC, PBP1 C-terminal tail deletion mutant (from UniProt Q980X5 1-78) (domain or fragment) | – | 6 |
| recombinant PBP2 of Sulfolobus solfataricus (SSO6202) (natural protein) | 1 | – |
